# T1: HVEM expressed on transfected 293 cells (Homo sapiens (Human), UniProt Q92956 39-283)
# T1 construct: also called HVEM transfected cells; 293 cells expressing HVEM
# T1 sequence: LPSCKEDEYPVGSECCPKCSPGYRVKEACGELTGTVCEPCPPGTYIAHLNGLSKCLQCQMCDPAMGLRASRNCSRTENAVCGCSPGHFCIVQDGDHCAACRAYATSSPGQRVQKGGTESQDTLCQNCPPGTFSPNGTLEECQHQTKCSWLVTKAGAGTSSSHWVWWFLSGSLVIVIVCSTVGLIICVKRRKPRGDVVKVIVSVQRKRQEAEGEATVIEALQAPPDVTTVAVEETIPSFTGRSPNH
# T2: hICOS-Fc (human, UniProt Q9Y6W8 21-141, limits assumed)
# T2 construct: Bought (R&D systems); not shown: Fc; not described
# T2 sequence (looked up): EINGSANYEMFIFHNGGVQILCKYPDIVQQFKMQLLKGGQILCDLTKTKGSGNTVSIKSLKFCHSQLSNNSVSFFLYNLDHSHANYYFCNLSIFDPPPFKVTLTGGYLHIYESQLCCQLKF
# T3: hCTLA4-Fc (human, UniProt P16410 37-162, limits assumed)
# T3 construct: Bought (R&D systems); not shown: Fc; not described
# T3 sequence (looked up): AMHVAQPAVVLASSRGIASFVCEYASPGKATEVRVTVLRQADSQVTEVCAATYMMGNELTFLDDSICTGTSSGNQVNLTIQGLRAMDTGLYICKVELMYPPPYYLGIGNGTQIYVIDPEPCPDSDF
# T4: PRO87299(ECD)-Fc (human, UniProt Q7Z6A9 31-155, I-125 radiolabel in the cell binding assays (Table 7); residues not stated)
# T4 construct: Extracellular domain (amino acids 1-155) ligated into a plasmid containing a human Fc domain; also called PRO87299-Fc; PRO87299(ECD)-Fc chimera; not shown: human Fc domain
# T4 sequence: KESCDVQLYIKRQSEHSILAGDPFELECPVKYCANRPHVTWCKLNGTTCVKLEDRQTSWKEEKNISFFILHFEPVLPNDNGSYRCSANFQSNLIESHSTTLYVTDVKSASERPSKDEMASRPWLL
# B1: LIGHT-FLAG (ligand)
# chain: GEMVTRLPDGPAGSWEQLIQERRSHEVNPAAHLTGANSSLTGSGGPLLWETQLGLAFLRGLSYHDGALVVTKAGYYYIYSKVQLGGVGCPLGLASTITHGLYKRTPRYPEELELLVSQQSPCGRATSSSRVWWDSSFLGGVVHLEAGEEVVVRVLDERLVRLRDGTRSYFGAFMV
# modifications: I-125 radiolabel; residues not stated
# notes: also called I-125-LIGHT-FLAG; not shown: FLAG tag
# B2: HVEM-Fc (Fc fusion)
# chain: LPSCKEDEYPVGSECCPKCSPGYRVKEACGELTGTVCEPCPPGTYIAHLNGLSKCLQCQMCDPAMGLRASRNCSRTENAVCGCSPGHFCIVQDGDHCAACRAYATSSPGQRVQKGGTESQDTLCQNCPPGTFSPNGTLEECQHQTKCSWLVTKAGAGTSSS
# modifications: I-125 radiolabel in the cell binding assays (Table 7); residues not stated
# notes: also called I-125-HVEM-Fc; HVEM-Fc fusion protein; not shown: Fc
# Columns and labels:
# [1] = molecular target: T1, HVEM expressed on transfected 293 cells; test: radioligand binding to transfected cells, Scatchard analysis
# [2] = molecular target: T5, PRO87299 on cells (human, UniProt Q7Z6A9 31-289); test: as above
# T5 construct: Used both for transfected cells and for the native protein on human primary B and CD4+ T cells; also called PRO87299 transfected cells; 293 cells expressing PRO87299
# [3] = molecular target: T6, LIGHT expressed on transfected cells (Homo sapiens (Human), UniProt O43557 1-240); test: as above
# T6 construct: also called Expressed protein LIGHT
# [4] = molecular target: T7, PRO87299/LIGHT (both expressed on the same cells) (human, UniProt Q7Z6A9 31-289; O43557 1-240); test: radioligand binding to cells expressing PRO87299/LIGHT, Scatchard analysis
# T7 construct: also called Expressed protein PRO87299/LIGHT
# [5] = molecular target: T8, hCD28-Fc (human, UniProt P10747 19-152, limits assumed); test: Biacore; hCD28-Fc amine coupled to a CM5 chip, HVEM-Fc injected at 2 ug/ml and 5 ul/min
# T8 construct: Bought (R&D systems); not shown: Fc; not described
# [6] = molecular target: T2, hICOS-Fc; test: Biacore; hICOS-Fc amine coupled to a CM5 chip, HVEM-Fc injected at 2 ug/ml and 5 ul/min
# [7] = molecular target: T9, hPD-1-Fc (human, UniProt Q15116 25-167, limits assumed); test: Biacore; hPD-1-Fc amine coupled to a CM5 chip, HVEM-Fc injected at 2 ug/ml and 5 ul/min
# T9 construct: Bought (R&D systems); not shown: Fc; not described
# [8] = molecular target: T3, hCTLA4-Fc; test: Biacore; hCTLA4-Fc amine coupled to a CM5 chip, HVEM-Fc injected at 2 ug/ml and 5 ul/min
# [9] = molecular target: T4, PRO87299(ECD)-Fc; test: Biacore; HVEM-Fc amine coupled to a CM5 chip at 150 RU, PRO87299-Fc 17 nM injected at 5 ul/min for 1200 s, alone and mixed with 25 nM LIGHT
# T8 sequence (P10747 19-152 limits assumed): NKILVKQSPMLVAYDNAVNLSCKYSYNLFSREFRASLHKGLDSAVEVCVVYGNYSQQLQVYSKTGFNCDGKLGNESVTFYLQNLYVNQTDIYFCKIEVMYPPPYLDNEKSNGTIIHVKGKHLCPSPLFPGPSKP
# T9 sequence (Q15116 25-167 limits assumed): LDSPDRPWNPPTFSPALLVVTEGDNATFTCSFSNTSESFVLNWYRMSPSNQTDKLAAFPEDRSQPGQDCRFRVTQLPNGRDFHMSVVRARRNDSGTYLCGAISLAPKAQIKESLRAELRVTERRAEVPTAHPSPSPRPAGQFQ
Binder,Kd [1],Kd [2],Kd [3],Kd [4],binding result [5],binding result [6],binding result [7],binding result [8],binding result [9]
B1,2.5 nM,–,–,–,–,–,–,–,–
B2,–,5.5 nM,7 nM,0.5 nM,no binding (tested: 2 ug/ml),no binding (tested: 2 ug/ml),no binding (tested: 2 ug/ml),no binding (tested: 2 ug/ml),binds

# Source: patent publication US20090175855A1 (Genentech, published 2009)
